Assay results from the supplement of paper PMC6757056.
± gives the standard deviation of the averaged measurements.

B1: library; a variant is named by its letters at N, in order (parent)
chain: GCUGUCACCGGUGUAUUACCCUAGUGGUCGACCGGUCUGAUGAGUCUNNNNNNAGACGAAACAGC

Assays:
[1] = variants of: B1; experiment: normalized RNA/DNA level with ligand (relative to sTRSVctl = 100) (log10 (% of sTRSVctl)); ligand: hypoxanthine (xanthine aptamer); higher = less ribozyme self-cleavage, higher mRNA level; conditions: ligand concentration (+) RNA-Seq: 5 mM, HEK293T, reporter: mCherry (pCS4076), ligand present: yes
In short: (§1)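 RNA level was computed as RNA reads over DNA reads divided by a spiked-in non-cleaving sequence or by the top sequences, then scaled and log-transformed. Scaling was ×100 with log10, the top group was 25 sequences, and the threshold was ≥100 DNA reads. The reads came from HEK293T cells transfected at 4 µg per 6-well well with ribozyme switch library plasmids (mCherry, or eGFP in some ligand experiments). Total RNA was extracted with EDTA 72 h after transfection, with any ligand added 1 h before it.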

[2] = variants of: B1; experiment: normalized RNA/DNA level without ligand (relative to sTRSVctl = 100) (log10 (% of sTRSVctl)); ligand: hypoxanthine (xanthine aptamer); higher = less ribozyme self-cleavage, higher mRNA level; conditions: HEK293T, reporter: mCherry (pCS4076), ligand present: no
In short: as §1

Variant | normalized RNA/DNA level with ligand (log10) [1] | normalized RNA/DNA level without ligand (log10) [2]
GCUGUCACCGGUGUAUUACCCUAGUGGUCGACCGGUCUGAUGAGUCUUGGGACAGACGAAACAGC [UGGGAC] | 1.897 ± 0.018 | 1.83 ± 0.044
GCUGUCACCGGUGUAUUACCCUAGUGGUCGACCGGUCUGAUGAGUCUUGGGAGAGACGAAACAGC [UGGGAG] | 1.9 ± 0.054 | 1.55 ± 0.044
GCUGUCACCGGUGUAUUACCCUAGUGGUCGACCGGUCUGAUGAGUCUUGGGAUAGACGAAACAGC [UGGGAU] | 1.938 ± 0.014 | 1.71 ± 0.02
GCUGUCACCGGUGUAUUACCCUAGUGGUCGACCGGUCUGAUGAGUCUUGGGAAAGACGAAACAGC [UGGGAA] | 1.86 ± 0.054 | 1.64 ± 0.036
GCUGUCACCGGUGUAUUACCCUAGUGGUCGACCGGUCUGAUGAGUCUCGGCUUAGACGAAACAGC [CGGCUU] | 2.05 ± 0.038 | 1.93 ± 0.02
GCUGUCACCGGUGUAUUACCCUAGUGGUCGACCGGUCUGAUGAGUCUCGGCUCAGACGAAACAGC [CGGCUC] | 2.04 ± 0.061 | 2.037 ± 0.017
GCUGUCACCGGUGUAUUACCCUAGUGGUCGACCGGUCUGAUGAGUCUCGGCUGAGACGAAACAGC [CGGCUG] | 1.97 ± 0.037 | 1.889 ± 0.0029
GCUGUCACCGGUGUAUUACCCUAGUGGUCGACCGGUCUGAUGAGUCUCGGCUAAGACGAAACAGC [CGGCUA] | 1.935 ± 0.017 | 1.67 ± 0.031
GCUGUCACCGGUGUAUUACCCUAGUGGUCGACCGGUCUGAUGAGUCUGGGCUCAGACGAAACAGC [GGGCUC] | 1.9567 ± 0.00028 | 2 ± 0.093
GCUGUCACCGGUGUAUUACCCUAGUGGUCGACCGGUCUGAUGAGUCUGGGCUUAGACGAAACAGC [GGGCUU] | 1.98 ± 0.069 | 1.96 ± 0.029
GCUGUCACCGGUGUAUUACCCUAGUGGUCGACCGGUCUGAUGAGUCUUGGCGUAGACGAAACAGC [UGGCGU] | 1.961 ± 0.015 | 1.68 ± 0.064
GCUGUCACCGGUGUAUUACCCUAGUGGUCGACCGGUCUGAUGAGUCUUGGCUAAGACGAAACAGC [UGGCUA] | 2.009 ± 0.006 | 1.942 ± 0.011
GCUGUCACCGGUGUAUUACCCUAGUGGUCGACCGGUCUGAUGAGUCUUGGCUCAGACGAAACAGC [UGGCUC] | 2.02 ± 0.051 | 2 ± 0.021
GCUGUCACCGGUGUAUUACCCUAGUGGUCGACCGGUCUGAUGAGUCUAGGCUCAGACGAAACAGC [AGGCUC] | 2.02 ± 0.024 | 2.01 ± 0.055
GCUGUCACCGGUGUAUUACCCUAGUGGUCGACCGGUCUGAUGAGUCUAGGCUUAGACGAAACAGC [AGGCUU] | 1.968 ± 0.014 | 1.89 ± 0.043
GCUGUCACCGGUGUAUUACCCUAGUGGUCGACCGGUCUGAUGAGUCUCGGGACAGACGAAACAGC [CGGGAC] | 1.96 ± 0.078 | 1.726 ± 0.0062
GCUGUCACCGGUGUAUUACCCUAGUGGUCGACCGGUCUGAUGAGUCUCGGGAUAGACGAAACAGC [CGGGAU] | 1.94 ± 0.064 | 1.608 ± 0.016
GCUGUCACCGGUGUAUUACCCUAGUGGUCGACCGGUCUGAUGAGUCUCGGGAAAGACGAAACAGC [CGGGAA] | 1.85 ± 0.029 | 1.53 ± 0.046
GCUGUCACCGGUGUAUUACCCUAGUGGUCGACCGGUCUGAUGAGUCUCGGGAGAGACGAAACAGC [CGGGAG] | 1.87 ± 0.04 | 1.63 ± 0.021
GCUGUCACCGGUGUAUUACCCUAGUGGUCGACCGGUCUGAUGAGUCUGGGGACAGACGAAACAGC [GGGGAC] | 1.91 ± 0.068 | 1.613 ± 0.0032
GCUGUCACCGGUGUAUUACCCUAGUGGUCGACCGGUCUGAUGAGUCUGGGGAUAGACGAAACAGC [GGGGAU] | 1.895 ± 0.015 | 1.749 ± 0.0068
